From the supplement of paper PMC10567573

B1: HSP90AB1 (parent)
chain: TLRQKAEADKNDKAVKDLVVLLFE

Variants of: B1
Assay: protein stability index of a GFP-peptide fusion (GPS, HEK-293T) (PSI 1-6); higher = more stable
Conditions: c terminus: a fixed tail appended
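Further: lentivirally expressed fusions sorted by FACS into six bins by GFP to DsRed ratio, PSI derived from sequencing read proportions per bin multiplied by bin number.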

Compared with TLRQKAEAIKNDKAVKDLVVLLFE [D9I], TLRQKAEAPKNDKAVKDLVVLLFE [D9P] is higher in protein stability index: 2.26 for the first, 2.48 for the second.

First: TLRQKAEAVKNDKAVKDLVVLLFE [D9V]
Second: TLRQKAEAAKNDKAVKDLVVLLFE [D9A]
The protein stability index of the first is lower: 2.38 for the first, 2.98 for the second.

Going from TLRQKAEASKNDKAVKDLVVLLFE [D9S] to TLRQKAEAFKNDKAVKDLVVLLFE [D9F], the protein stability index falls from 2.92 to 2.52.

Compared with TLRQKAEADKNDKAVKDLVVLMFE [L22M], TLRQKAEADKNDKAVKDLVVLPFE [L22P] is higher in protein stability index: 3.15 for the first, 4.97 for the second.

Going from TLRQKAEADKNDKAVKDLVVLSFE [L22S] to TLRQKAEADKNDKAVKDLVVLDFE [L22D], the protein stability index rises from 4.34 to 4.86.

First: TLRQKAEADKNDKAVKDLVVLCFE [L22C]
Second: TLRQKAEADKNDKAVKDLVVLTFE [L22T]
The protein stability index of the first is lower: 3.82 for the first, 3.96 for the second.

Compared with TLRQKAEADKNDKAVKDLVVLGFE [L22G], TLRQKAEADKNDKAVKDLVVLLGE [F23G] is higher in protein stability index: 4.5 for the first, 4.87 for the second.

Compared with TLRQKAEADKNDKAVKDLVVLLME [F23M], TLRQKAEADKNDKAVKDLVVLLEE [F23E] is higher in protein stability index: 3.37 for the first, 5.22 for the second.

First: TLRQKAEADKNDKAVKDLVVLLHE [F23H]
Second: TLRQKAEADKNDKAVKDLVVLLCE [F23C]
The protein stability index of the first is higher: 4.5 for the first, 3.71 for the second.

First: TLRQKAEADKNDKAVKDSVVLLFE [L18S]
Second: TLRQKAEADKNDKAVKDHVVLLFE [L18H]
The protein stability index of the first is higher: 3.9 for the first, 3.3 for the second.

TLRQKAEADKNDKAVKDRVVLLFE [L18R] and TLRQKAEADKNDKAVKDWVVLLFE [L18W] are the same in protein stability index: 3.19 for the first, 3.19 for the second.

Going from TLRQKAEADKNDKAVKDPVVLLFE [L18P] to TLRQKAEADKNDKAVKDIVVLLFE [L18I], the protein stability index falls from 4.21 to 2.95.

Going from TLRQKAEADKNDKAVKDCVVLLFE [L18C] to TLRQKAEADKNRKAVKDLVVLLFE [D12R], the protein stability index rises from 2.85 to 3.48.

Going from TLRQKAEADKNPKAVKDLVVLLFE [D12P] to TLRQKAEADKNQKAVKDLVVLLFE [D12Q], the protein stability index rises from 2.49 to 2.7.

Going from TLRQKAEADKNKKAVKDLVVLLFE [D12K] to TLRQKAEADKNSKAVKDLVVLLFE [D12S], the protein stability index rises from 1.99 to 3.17.

Compared with TLRQKAEADKNWKAVKDLVVLLFE [D12W], TLRQKAEADKNGKAVKDLVVLLFE [D12G] is higher in protein stability index: 2.07 for the first, 2.48 for the second.

First: TLRQKAEADKNCKAVKDLVVLLFE [D12C]
Second: TLRQKAEADKNEKAVKDLVVLLFE [D12E]
The protein stability index of the first is lower: 2.59 for the first, 2.95 for the second.

Going from TLRQKAEADKNHKAVKDLVVLLFE [D12H] to TLRQLAEADKNDKAVKDLVVLLFE [K5L], the protein stability index rises from 2.56 to 3.1.

First: TLRQMAEADKNDKAVKDLVVLLFE [K5M]
Second: TLRQGAEADKNDKAVKDLVVLLFE [K5G]
The protein stability index of the first is lower: 3.48 for the first, 3.87 for the second.

Going from TLRQIAEADKNDKAVKDLVVLLFE [K5I] to TLRQHAEADKNDKAVKDLVVLLFE [K5H], the protein stability index falls from 3.03 to 3.01.

Going from TLRQTAEADKNDKAVKDLVVLLFE [K5T] to TLRQVAEADKNDKAVKDLVVLLFE [K5V], the protein stability index rises from 3.15 to 3.24.

Compared with TLSQKAEADKNDKAVKDLVVLLFE [R3S], TLLQKAEADKNDKAVKDLVVLLFE [R3L] is lower in protein stability index: 3.58 for the first, 3.11 for the second.

First: TLKQKAEADKNDKAVKDLVVLLFE [R3K]
Second: TLQQKAEADKNDKAVKDLVVLLFE [R3Q]
The protein stability index of the first is higher: 3.36 for the first, 3.11 for the second.

Compared with TLTQKAEADKNDKAVKDLVVLLFE [R3T], TLRQKASADKNDKAVKDLVVLLFE [E7S] is lower in protein stability index: 3.59 for the first, 2.67 for the second.

Compared with TLRQKAIADKNDKAVKDLVVLLFE [E7I], TLRQKAAADKNDKAVKDLVVLLFE [E7A] is higher in protein stability index: 2.63 for the first, 2.67 for the second.

Compared with TLRQKARADKNDKAVKDLVVLLFE [E7R], TLRQKALADKNDKAVKDLVVLLFE [E7L] is higher in protein stability index: 2.29 for the first, 2.54 for the second.

Compared with TLRQKADADKNDKAVKDLVVLLFE [E7D], TLRQKAVADKNDKAVKDLVVLLFE [E7V] is lower in protein stability index: 2.79 for the first, 2.63 for the second.

Going from TLRQKAEADKNDKHVKDLVVLLFE [A14H] to TLRQKAEADKNDKVVKDLVVLLFE [A14V], the protein stability index falls from 2.79 to 2.44.

Compared with TLRQKAEADKNDKKVKDLVVLLFE [A14K], TLRQKAEADKNDKPVKDLVVLLFE [A14P] is lower in protein stability index: 3.1 for the first, 2.99 for the second.

Compared with TLRQKAEADKNDKRVKDLVVLLFE [A14R], TLRQKAEADKNDKWVKDLVVLLFE [A14W] is higher in protein stability index: 2.62 for the first, 2.68 for the second.

Going from TLRQKAEADKNDKCVKDLVVLLFE [A14C] to TLRQKAEADKNDKIVKDLVVLLFE [A14I], the protein stability index rises from 2.35 to 3.

Compared with TLRSKAEADKNDKAVKDLVVLLFE [Q4S], TLRYKAEADKNDKAVKDLVVLLFE [Q4Y] is lower in protein stability index: 3.21 for the first, 2.37 for the second.

First: TLRGKAEADKNDKAVKDLVVLLFE [Q4G]
Second: TLREKAEADKNDKAVKDLVVLLFE [Q4E]
The protein stability index of the first is lower: 3.06 for the first, 3.39 for the second.

First: TLRAKAEADKNDKAVKDLVVLLFE [Q4A]
Second: TLRHKAEADKNDKAVKDLVVLLFE [Q4H]
The protein stability index of the first is higher: 2.63 for the first, 2.37 for the second.

Compared with TLRNKAEADKNDKAVKDLVVLLFE [Q4N], TLRKKAEADKNDKAVKDLVVLLFE [Q4K] is higher in protein stability index: 2.71 for the first, 3.26 for the second.

First: TLRQKAEADKNDKAVWDLVVLLFE [K16W]
Second: TLRQKAEADKNDKAVQDLVVLLFE [K16Q]
The protein stability index of the first is lower: 3.02 for the first, 3.75 for the second.

Going from TLRQKAEADKNDKAVPDLVVLLFE [K16P] to TLRQKAEADKNDKAVMDLVVLLFE [K16M], the protein stability index rises from 2.65 to 2.86.

Going from TLRQKAEADKNDKAVSDLVVLLFE [K16S] to TLRQKAEADKNDKAVVDLVVLLFE [K16V], the protein stability index rises from 2.92 to 3.65.

First: TLRQKAEADKNDKAVDDLVVLLFE [K16D]
Second: TLRQKAEADKNDKAVTDLVVLLFE [K16T]
The protein stability index of the first is higher: 3.36 for the first, 2.99 for the second.

First: TLRQKAEADKNDKAVNDLVVLLFE [K16N]
Second: TLRQKAEADKNDKAVADLVVLLFE [K16A]
The protein stability index of the first is higher: 3.44 for the first, 2.87 for the second.

Going from TLRQKAEADKNDKAVKDLWVLLFE [V19W] to TLRQKAEADKNDKAVKDLYVLLFE [V19Y], the protein stability index rises from 2.7 to 3.1.

Compared with TLRQKAEADKNDKAVKDLNVLLFE [V19N], TLRQKAEADKNDKAVKDLAVLLFE [V19A] is lower in protein stability index: 3.91 for the first, 3.72 for the second.

First: TLRQKAEADKNDKAVKDLEVLLFE [V19E]
Second: TLRQKAEADKNDKAVKDLLVLLFE [V19L]
The protein stability index of the first is higher: 5.04 for the first, 2.68 for the second.

Going from TLRQKAEADKNDKAVKDLPVLLFE [V19P] to TLRQKAEADKNDKAVKDLIVLLFE [V19I], the protein stability index falls from 4.38 to 3.5.

First: TLRQKAEADKNDKAVKDLCVLLFE [V19C]
Second: TLRQKAEADKNDKAVKDLTVLLFE [V19T]
The protein stability index of the first is lower: 3.16 for the first, 4.13 for the second.

First: TLRQKAEADKNDKAVKDLFVLLFE [V19F]
Second: TLRQKAEADKNDKAVKDLDVLLFE [V19D]
The protein stability index of the first is lower: 2.96 for the first, 4.61 for the second.

Going from TLRQKAEADKNDKAVKDLVVKLFE [L21K] to TLRQKAEADKNDKAVKDLVVQLFE [L21Q], the protein stability index rises from 2.91 to 3.52.
